Results published in PMC5119886, “POWERDRESS interacts with HISTONE DEACETYLASE 9 to promote aging in Arabidopsis” (eLife, 2016).

Target: T1, HDA9-3xFLAG (HISTONE DEACETYLASE 9, pHDA9::HDA9-3xFLAG/hda9) (Arabidopsis thaliana, UniProt Q8H0W2 1-426)
T1 construct: Histone deacetylase 9 (HDA9), RPD3-type deacetylase, Arabidopsis thaliana; genomic DNA with its 1 kb promoter cloned into pEarleyGate302; Primers are in Supplementary file 1; also called HDA9-FLAG; source: Arabidopsis transgenic plants (native HDA9 promoter, hda9 background): in leaf extract for IP-MS; purified on anti-FLAG M2 beads with 3xFLAG peptide elution for the pull-down
T1 sequence (looked up): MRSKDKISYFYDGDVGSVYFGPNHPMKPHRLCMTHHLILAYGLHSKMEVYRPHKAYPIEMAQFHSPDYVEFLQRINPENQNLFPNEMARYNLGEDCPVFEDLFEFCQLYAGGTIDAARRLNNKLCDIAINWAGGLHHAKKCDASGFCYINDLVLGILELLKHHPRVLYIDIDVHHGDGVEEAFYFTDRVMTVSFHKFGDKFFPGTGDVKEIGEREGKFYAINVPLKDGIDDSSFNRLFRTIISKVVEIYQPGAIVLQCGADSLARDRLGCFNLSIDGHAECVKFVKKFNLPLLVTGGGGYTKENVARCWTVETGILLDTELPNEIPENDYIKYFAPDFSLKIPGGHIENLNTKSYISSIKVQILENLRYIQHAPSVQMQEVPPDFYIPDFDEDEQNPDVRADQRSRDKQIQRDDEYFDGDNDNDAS
Test: pull-down; purified HDA9-FLAG incubated with GST-tagged protein in 20 mM Tris-HCl 8.0, 200 mM NaCl, 1 mM EDTA, 0.5% Nonidet P-40 for one hour, then Glutathione Sepharose 4B beads for one hour at 4°C; detected with anti-GST and anti-FLAG; two technical replicates
Conditions: both partners purified

binding result: binds
B1: GST-WRKY53 (GST tagged full-length WRKY53) (natural protein, Arabidopsis thaliana, UniProt Q9SUP6 1-324, looked up)
chain: MEGRDMLSWEQKTLLSELINGFDAAKKLQARLREAPSPSSSFSSPATAVAETNEILVKQIVSSYERSLLLLNWSSSPSVQLIPTPVTVVPVANPGSVPESPASINGSPRSEEFADGGGSSESHHRQDYIFNSKKRKMLPKWSEKVRISPERGLEGPQDDVFSWRKYGQKDILGAKFPRSYYRCTHRSTQNCWATKQVQRSDGDATVFEVTYRGTHTCSQAITRTPPLASPEKRQDTRVKPAITQKPKDILESLKSNLTVRTDGLDDGKDVFSFPDTPPFYNYGTINGEFGHVESSPIFDVVDWFNPTVEIDTTFPAFLHESIYY
notes: WRKY53 transcription factor, Arabidopsis thaliana; full-length cDNA cloned into pGOOD (pGEX-6P modified by adding a 6XHIS tag at the C terminus); Primers are in Supplementary file 1; source: E. coli, induced with 200 uM IPTG for three hours at 37°C, purified
